In the supplement of paper PMC10567573:

B1: ZNF263 (parent)
chain: QPKKLHLCPLCGKNFSNNSNLIRH

Variants of: B1
Assay: protein stability index of a GFP-peptide fusion (GPS, HEK-293T) (PSI 1-6); higher = more stable
Details: c terminus: a fixed tail appended
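Also: lentivirally expressed fusions sorted by FACS into six bins by GFP to DsRed ratio, PSI derived from sequencing read proportions per bin multiplied by bin number.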

First: QPKKLHLCPLCLKNFSNNSNLIRH [G12L]
Second: QPKKLHLCPLCEKNFSNNSNLIRH [G12E]
The protein stability index of the first is higher: 2.07 for the first, 2 for the second.

Going from QPKKLHLCPLCRKNFSNNSNLIRH [G12R] to QPKKLHLCPLCYKNFSNNSNLIRH [G12Y], the protein stability index rises from 2.34 to 2.68.

First: QPKKLHLCPLCIKNFSNNSNLIRH [G12I]
Second: QPKKLHLCPLCHKNFSNNSNLIRH [G12H]
The protein stability index of the first is higher: 2.44 for the first, 2.4 for the second.

Going from QPKKLHLCPLCKKNFSNNSNLIRH [G12K] to QPKKLHLCPLCQKNFSNNSNLIRH [G12Q], the protein stability index rises from 2.13 to 2.53.

First: QPKKLHLCPLCSKNFSNNSNLIRH [G12S]
Second: QPKKLHLCPLCWKNFSNNSNLIRH [G12W]
The protein stability index of the first is higher: 1.99 for the first, 1.94 for the second.

Compared with QPKKLHLCPLCDKNFSNNSNLIRH [G12D], QPKKLHLCPLCTKNFSNNSNLIRH [G12T] is higher in protein stability index: 2.11 for the first, 3.13 for the second.

First: QPKKLHLCPLCPKNFSNNSNLIRH [G12P]
Second: QPKKLHLCPLCNKNFSNNSNLIRH [G12N]
The protein stability index of the first is lower: 2.3 for the first, 2.45 for the second.

Going from QPKKLHLCPLCFKNFSNNSNLIRH [G12F] to QPKKLHLCPLCCKNFSNNSNLIRH [G12C], the protein stability index rises from 1.39 to 2.47.

First: QPKKLHLCPLCVKNFSNNSNLIRH [G12V]
Second: QPKKLHLCPLCMKNFSNNSNLIRH [G12M]
The protein stability index of the first is higher: 2.36 for the first, 1.79 for the second.

Going from QPKKLHLCPLCAKNFSNNSNLIRH [G12A] to QPKKLHLCPLCGDNFSNNSNLIRH [K13D], the protein stability index falls from 2.27 to 1.67.

First: QPKKLHLCPLCGANFSNNSNLIRH [K13A]
Second: QPKKLHLCPLCGENFSNNSNLIRH [K13E]
The protein stability index of the first is higher: 3.12 for the first, 2.29 for the second.

First: QPKKLHLCPLCGHNFSNNSNLIRH [K13H]
Second: QPKKLHLCPLCGWNFSNNSNLIRH [K13W]
The protein stability index of the first is higher: 2.62 for the first, 1.8 for the second.

First: QPKKLHLCPLCGNNFSNNSNLIRH [K13N]
Second: QPKKLHLCPLCGSNFSNNSNLIRH [K13S]
The protein stability index of the first is higher: 2.77 for the first, 2.41 for the second.

Compared with QPKKLHLCPLCGPNFSNNSNLIRH [K13P], QPKKLHLCPLCGLNFSNNSNLIRH [K13L] is higher in protein stability index: 1.82 for the first, 2.21 for the second.

Going from QPKKLHLCPLCGGNFSNNSNLIRH [K13G] to QPKKLHLCPLCGFNFSNNSNLIRH [K13F], the protein stability index rises from 2.24 to 2.51.

Compared with QPKKLHLCPLCGMNFSNNSNLIRH [K13M], QPKKLHLCPLCGTNFSNNSNLIRH [K13T] is lower in protein stability index: 2.69 for the first, 2.15 for the second.

Going from QPKKLHLCPLCGCNFSNNSNLIRH [K13C] to QPKKLHLCPLCGINFSNNSNLIRH [K13I], the protein stability index falls from 2.47 to 1.89.

Going from QPKKLHLCPLCGQNFSNNSNLIRH [K13Q] to QPKKLHLCPLCGRNFSNNSNLIRH [K13R], the protein stability index rises from 2.11 to 2.53.

Compared with QPKKLHLCPLCGYNFSNNSNLIRH [K13Y], QPKKLHLCPLCGVNFSNNSNLIRH [K13V] is lower in protein stability index: 2.91 for the first, 2 for the second.

Compared with QPKKLHLCPLCGKNFSTNSNLIRH [N17T], QPKKLHLCPLCGKNFSKNSNLIRH [N17K] is lower in protein stability index: 2.91 for the first, 2.28 for the second.

Going from QPKKLHLCPLCGKNFSANSNLIRH [N17A] to QPKKLHLCPLCGKNFSINSNLIRH [N17I], the protein stability index falls from 2.69 to 2.25.

Compared with QPKKLHLCPLCGKNFSLNSNLIRH [N17L], QPKKLHLCPLCGKNFSQNSNLIRH [N17Q] is lower in protein stability index: 2.58 for the first, 2.42 for the second.

First: QPKKLHLCPLCGKNFSHNSNLIRH [N17H]
Second: QPKKLHLCPLCGKNFSRNSNLIRH [N17R]
The protein stability index of the first is higher: 2.43 for the first, 2.07 for the second.

First: QPKKLHLCPLCGKNFSYNSNLIRH [N17Y]
Second: QPKKLHLCPLCGKNFSCNSNLIRH [N17C]
The protein stability index of the first is lower: 2.23 for the first, 2.33 for the second.

Going from QPKKLHLCPLCGKNFSPNSNLIRH [N17P] to QPKKLHLCPLCGKNFSGNSNLIRH [N17G], the protein stability index falls from 2.33 to 2.09.

Compared with QPKKLHLCPLCGKNFSFNSNLIRH [N17F], QPKKLHLCPLCGKNFSSNSNLIRH [N17S] is higher in protein stability index: 2.06 for the first, 2.66 for the second.

Compared with QPKKLHLCPLCGKNFSENSNLIRH [N17E], QPKKLHLCPLCGKNFSDNSNLIRH [N17D] is higher in protein stability index: 2.33 for the first, 2.48 for the second.

Compared with QPKKLHLCPLCGKNFSWNSNLIRH [N17W], QPKKLHLCPLCGKNFSMNSNLIRH [N17M] is higher in protein stability index: 2.15 for the first, 2.26 for the second.

Going from QPKKLHLCPLCGKNFSVNSNLIRH [N17V] to QPKKLHLCPLCGKNMSNNSNLIRH [F15M], the protein stability index falls from 2.18 to 1.99.

First: QPKKLHLCPLCGKNYSNNSNLIRH [F15Y]
Second: QPKKLHLCPLCGKNWSNNSNLIRH [F15W]
The protein stability index of the first is higher: 2.46 for the first, 1.95 for the second.

Compared with QPKKLHLCPLCGKNCSNNSNLIRH [F15C], QPKKLHLCPLCGKNNSNNSNLIRH [F15N] is lower in protein stability index: 2.53 for the first, 2.45 for the second.

Compared with QPKKLHLCPLCGKNDSNNSNLIRH [F15D], QPKKLHLCPLCGKNTSNNSNLIRH [F15T] is lower in protein stability index: 2.56 for the first, 1.95 for the second.

First: QPKKLHLCPLCGKNLSNNSNLIRH [F15L]
Second: QPKKLHLCPLCGKNSSNNSNLIRH [F15S]
The protein stability index of the first is lower: 2 for the first, 2.19 for the second.

First: QPKKLHLCPLCGKNRSNNSNLIRH [F15R]
Second: QPKKLHLCPLCGKNISNNSNLIRH [F15I]
The protein stability index of the first is higher: 2.61 for the first, 2.36 for the second.

First: QPKKLHLCPLCGKNHSNNSNLIRH [F15H]
Second: QPKKLHLCPLCGKNKSNNSNLIRH [F15K]
The protein stability index of the first is higher: 3.33 for the first, 2.06 for the second.

First: QPKKLHLCPLCGKNASNNSNLIRH [F15A]
Second: QPKKLHLCPLCGKNPSNNSNLIRH [F15P]
The protein stability index of the first is lower: 2.03 for the first, 2.22 for the second.

First: QPKKLHLCPLCGKNQSNNSNLIRH [F15Q]
Second: QPKKLHLCPLCGKNGSNNSNLIRH [F15G]
The protein stability index of the first is higher: 1.89 for the first, 1.8 for the second.

First: QPKKLHLCPLCGKNESNNSNLIRH [F15E]
Second: QPKKLHLCPLCGKNVSNNSNLIRH [F15V]
The protein stability index of the first is higher: 2.07 for the first, 1.82 for the second.

Going from QPKKLHLCPLCGKNFKNNSNLIRH [S16K] to QPKKLHLCPLCGKNFVNNSNLIRH [S16V], the protein stability index falls from 2.56 to 2.05.

Compared with QPKKLHLCPLCGKNFHNNSNLIRH [S16H], QPKKLHLCPLCGKNFENNSNLIRH [S16E] is higher in protein stability index: 2.42 for the first, 2.62 for the second.

Going from QPKKLHLCPLCGKNFMNNSNLIRH [S16M] to QPKKLHLCPLCGKNFPNNSNLIRH [S16P], the protein stability index falls from 2.96 to 2.49.

Going from QPKKLHLCPLCGKNFRNNSNLIRH [S16R] to QPKKLHLCPLCGKNFQNNSNLIRH [S16Q], the protein stability index rises from 2.17 to 2.44.

Going from QPKKLHLCPLCGKNFYNNSNLIRH [S16Y] to QPKKLHLCPLCGKNFANNSNLIRH [S16A], the protein stability index falls from 2.6 to 2.4.

Going from QPKKLHLCPLCGKNFWNNSNLIRH [S16W] to QPKKLHLCPLCGKNFNNNSNLIRH [S16N], the protein stability index rises from 2.09 to 2.38.

Going from QPKKLHLCPLCGKNFCNNSNLIRH [S16C] to QPKKLHLCPLCGKNFINNSNLIRH [S16I], the protein stability index falls from 2.57 to 2.36.

First: QPKKLHLCPLCGKNFFNNSNLIRH [S16F]
Second: QPKKLHLCPLCGKNFTNNSNLIRH [S16T]
The protein stability index of the first is higher: 2.48 for the first, 2.21 for the second.

First: QPKKLHLCPLCGKNFDNNSNLIRH [S16D]
Second: QPKKLHLCPLCGKNFGNNSNLIRH [S16G]
The protein stability index of the first is lower: 2.72 for the first, 3.42 for the second.
